Assay results reported in PMC10229431, “Structures of the sulfite detoxifying F420-dependent enzyme from Methanococcales” (Nature Chemical Biology, 2023).
Read-outs that look alike come from different tables or passages of the source.

What was measured:
MjFsr = target: T1, MjFsr (Methanocaldococcus jannaschii, UniProt Q58280); assay: X-ray crystal structure, […] Å; format: binding; details: F420H2-oxidase domain
T1 construct: gene fsr; full length, native purification from M. jannaschii grown on sulfite; homotetramer, residues to 620
T1 sequence (Q58280 1-620): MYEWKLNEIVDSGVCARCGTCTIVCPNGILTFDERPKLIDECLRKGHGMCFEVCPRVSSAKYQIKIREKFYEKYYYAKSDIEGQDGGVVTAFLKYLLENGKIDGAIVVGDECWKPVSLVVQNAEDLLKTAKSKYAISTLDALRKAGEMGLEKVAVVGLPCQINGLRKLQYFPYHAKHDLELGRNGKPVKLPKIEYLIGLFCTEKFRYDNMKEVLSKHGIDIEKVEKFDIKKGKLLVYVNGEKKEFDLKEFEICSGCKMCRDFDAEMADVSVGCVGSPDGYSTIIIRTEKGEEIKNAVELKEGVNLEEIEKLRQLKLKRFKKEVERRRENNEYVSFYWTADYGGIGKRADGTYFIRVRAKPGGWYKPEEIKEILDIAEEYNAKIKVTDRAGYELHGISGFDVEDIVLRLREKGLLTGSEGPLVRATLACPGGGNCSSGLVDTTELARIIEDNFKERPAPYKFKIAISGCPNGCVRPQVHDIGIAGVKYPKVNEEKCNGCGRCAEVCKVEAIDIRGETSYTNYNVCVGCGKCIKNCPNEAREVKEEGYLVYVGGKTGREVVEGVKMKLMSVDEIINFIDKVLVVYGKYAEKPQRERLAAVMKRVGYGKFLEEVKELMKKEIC

MtFsr = test system: T2, MtFsr; assay: F420H2 oxidation followed at […] nm; format: biochemical, Methanothermococcus thermolithotrophicus; details: anaerobic, read-out: Apparent Km
T2 construct: gene fsr; full length, native purification from M. thermolithotrophicus grown on sulfite (assays) or sulfate (crystals); FAD, siroheme, six [4Fe-4S] clusters per subunit

[1] = target: coenzyme F420-dependent sulfite reductase (Group I Fsr) from Methanothermococcus thermolithotrophicus (Methanothermococcus thermolithotrophicus (endogenous in strain DSM 2095)); assay: native gel or EMSA; anaerobic high-resolution clear-native PAGE (8-15% gradient) of cell extracts of cultures grown on 2 mM Na2S or 2 mM Na2SO3
[2] = target: coenzyme F420-dependent sulfite reductase (Group I Fsr) from Methanothermococcus thermolithotrophicus (Methanothermococcus thermolithotrophicus (endogenous in strain DSM 2095)); assay: SEC; purified MtFsr on Superdex 200 Increase 10/300 GL, 0.4 ml/min, 25 mM Tris-HCl pH 7.6, 10% v/v glycerol, 2 mM DTT, anaerobic; standards conalbumin, aldolase, ferritin; apparent molecular weight
[3] = target: coenzyme F420-dependent sulfite reductase (Group I Fsr) from Methanothermococcus thermolithotrophicus (Methanothermococcus thermolithotrophicus (endogenous in strain DSM 2095)); assay: crystal structure; MtFsr at 11 mg/ml cocrystallized with FAD and F420H2; 200 mM lithium sulfate, 100 mM Bis-Tris pH 5.5, 25% w/v PEG 3350; anaerobic, 20 °C; four homotetramers in the asymmetric unit
[4] = target: the molecule itself; assay: crystal structure; MjFsr at 6.1 mg/ml; 45% v/v 2-methyl-2,4-pentanediol, 100 mM Bis-Tris pH 5.5, 200 mM calcium chloride; anaerobic, 20 °C; two half homotetramers in the asymmetric unit

Cc1cc2nc3c(=O)[nH]c(=O)nc-3n(C[C@H](O)[C@H](O)[C@H](O)COP(=O)(O)OP(=O)(O)OC[C@H]3O[C@@H](n4cnc5c(N)ncnc54)[C@H](O)[C@@H]3O)c2cc1C [FAD]
X-ray crystal structure, 2.30 Å (MjFsr): The active site of the F420H2-oxidase domain of Fsr contains a flavin adenine dinucleotide (FAD

O=S(O)O [SO3^2−]
Km (MtFsr; 0-500 µM Na2SO3, 50 µM F420H2, 200 mM KH2PO4 pH 7.0, 50 °C): 15.6 ± 2 µM

O=NO [NO2^−]
Km (MtFsr; 0-500 µM NaNO2, 50 µM F420H2, 200 mM KH2PO4 pH 7.0, 50 °C): 2.5 ± 0.2 µM

coenzyme F420-dependent sulfite reductase (Group I Fsr) from Methanothermococcus thermolithotrophicus
stoichiometry N [1]: 4
stoichiometry N [2]: 4
stoichiometry N [3]: 4

B1: coenzyme F420-dependent sulfite reductase (Group I Fsr) from Methanocaldococcus jannaschii (enzyme, UniProt Q58280 1-620, looked up)
chain: MYEWKLNEIVDSGVCARCGTCTIVCPNGILTFDERPKLIDECLRKGHGMCFEVCPRVSSAKYQIKIREKFYEKYYYAKSDIEGQDGGVVTAFLKYLLENGKIDGAIVVGDECWKPVSLVVQNAEDLLKTAKSKYAISTLDALRKAGEMGLEKVAVVGLPCQINGLRKLQYFPYHAKHDLELGRNGKPVKLPKIEYLIGLFCTEKFRYDNMKEVLSKHGIDIEKVEKFDIKKGKLLVYVNGEKKEFDLKEFEICSGCKMCRDFDAEMADVSVGCVGSPDGYSTIIIRTEKGEEIKNAVELKEGVNLEEIEKLRQLKLKRFKKEVERRRENNEYVSFYWTADYGGIGKRADGTYFIRVRAKPGGWYKPEEIKEILDIAEEYNAKIKVTDRAGYELHGISGFDVEDIVLRLREKGLLTGSEGPLVRATLACPGGGNCSSGLVDTTELARIIEDNFKERPAPYKFKIAISGCPNGCVRPQVHDIGIAGVKYPKVNEEKCNGCGRCAEVCKVEAIDIRGETSYTNYNVCVGCGKCIKNCPNEAREVKEEGYLVYVGGKTGREVVEGVKMKLMSVDEIINFIDKVLVVYGKYAEKPQRERLAAVMKRVGYGKFLEEVKELMKKEIC
notes: Group I coenzyme F420-dependent sulfite reductase (Fsr) of Methanocaldococcus jannaschii DSM 2661; Native enzyme, no tag; Each chain carries FAD, six [4Fe-4S] clusters and a siroheme; also called MjFsr; source: purified natively from M. jannaschii DSM 2661 cells under anaerobic atmosphere (Q Sepharose, Source15Phe, Superdex 200)
stoichiometry N [4]: 4
